Test results as given in patent US11174322B2, “Antibodies and peptides to treat HCMV related diseases” (priority 2017, dated 2021).

Target: T1, full-length pUL89 (His-pUL89) (Human cytomegalovirus, UniProt P16732)
T1 construct: made in house; host or cells: HEK293
Test: Alpha assay (Amplified Luminescent Proximity Homogeneous Assay) of the pUL56/pUL89 protein-protein interaction
Assay type: binding, human cytomegalovirus (HCMV), AD169
Procedure: FIG. 2: Determination of pUL56 binding domains for the interaction with pUL89 Alpha assay results. The Alpha assay for the binding of full-length pUL89 (His-pUL89, 1.5E+03 nM) was performed with 5E+02 nM wild-type pUL56 (HA-pUL56) or a deletion mutant of pUL56 (HA-pUL56 Del W671-F680). As a negative control, proteins were used alone and a reaction was performed without proteins (mock). Two measures for each reaction were performed in duplicate.
Alpha (Amplified Luminescent Proximity Homogeneous Assay) experiments were conducted according to the manufacturer's protocol (PerkinElmer, USA). Five μL of transfected MRC-5 lysate with HCMV-BAC is first disposed in wells of a 96-well AlphaPlate. The final concentration of each proteins was optimized to obtain the best value of interaction. Ten μL of each purified protein were combined (to give a final assay concentration of 500 nM of 3xHA-pUL56 and 1.5 μM of 6xHis-pUL89). Ten μL and 15 μL of 10 mg/mL of donor beads and acceptor beads, respectively, were added and incubated for 1 hour. Plates were read on a PerkinElmer EnVision™ plate reader using an excitation wavelength of 680 nm and emission detection was set at 615 nm.
HEK293 were transfected with SC784 and pCI-neo His-89 expression plasmids and protein-protein interactions were carried out by the Alpha assay. This technology represents a powerful method to highlight protein-protein interactions (Ullman et al., 1994) (Waller et al., 2010). […]
Alpha assay needs both acceptor and donor beads. […] In the absence of a specific biological interaction between proteins, singlet molecules produced by the Donor bead cannot be detected beyond 200 nm from the Acceptor bead (data not shown). […] Alpha assays with 3xHA-pUL56 and 6xHis-pUL89 results in the production of over 9,000 relative light units (RLU), over two-fold more than negative controls (3xHA-pUL56 or His-pUL89) (FIG. 2). pUL56 depleted of its W671-F680 fragment was in turn soaked with pUL89-WT and their affinity assessed by Alpha analysis. […]

T1 sequence (P16732 whole entry): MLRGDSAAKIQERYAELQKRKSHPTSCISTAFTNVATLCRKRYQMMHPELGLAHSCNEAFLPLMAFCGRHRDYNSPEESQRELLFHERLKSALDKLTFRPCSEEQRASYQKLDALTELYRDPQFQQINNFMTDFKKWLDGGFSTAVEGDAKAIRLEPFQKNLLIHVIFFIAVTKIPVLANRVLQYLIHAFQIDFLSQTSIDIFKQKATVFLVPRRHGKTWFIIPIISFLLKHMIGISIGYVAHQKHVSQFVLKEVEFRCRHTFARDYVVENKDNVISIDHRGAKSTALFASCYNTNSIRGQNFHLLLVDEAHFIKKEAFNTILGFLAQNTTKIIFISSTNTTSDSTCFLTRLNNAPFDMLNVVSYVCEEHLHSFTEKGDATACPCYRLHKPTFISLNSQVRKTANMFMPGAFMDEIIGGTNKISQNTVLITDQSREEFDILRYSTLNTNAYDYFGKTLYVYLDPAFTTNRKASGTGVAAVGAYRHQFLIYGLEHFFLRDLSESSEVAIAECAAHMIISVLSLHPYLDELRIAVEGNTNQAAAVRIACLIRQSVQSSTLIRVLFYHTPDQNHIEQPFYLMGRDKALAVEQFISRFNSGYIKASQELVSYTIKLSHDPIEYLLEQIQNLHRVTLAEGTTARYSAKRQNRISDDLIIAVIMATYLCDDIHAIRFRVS

B1: 3xHA-pUL56: full-length amino-terminal 3xHA-tagged pUL56, HCMV large terminase subunit, purified from transfected HEK293 (protein)
chain: MEMNLLQKLCVVCSKCNEYAMELECLKYCDPNVLLAESTPFKRNAAAIVYLYRKIYPEVVAQNRTQSSLLTLYLEMLLKALHEDTALLDRALMAYSRQPDRAAFYRTVLRLDRCDRHHTVELQFTDNVRFSVSLATLNDIERFLCKMNYVYGILAPEAGLEVCAQLLELLRRLCGISPVARQEVYVEGTTCAQCYEELTIIPNQGRSLNKRLQGLLCNHIAVHRPSSQSDVNIQTVEQDLLDLTTRIPHLAGVLSALKSLFSSSSAYHSYIQEAEEALREYNLFTDIPERIYSLSDFTYWSRTSEVIVKRVGITIQQLNVYHQLCRALMNGISRHLYGEDVEDIFVLGEKALDGEERMFVGSVFAAPNRIIDLITSLSIQAFEDNPVFNKLHESNEMYTKIKHILEEIRRPLPDGTGGDGPEGEAIHLRGREAMSGTGTTLMTASNSSNSSTHSQRNNGGGGRARGGGKKAVGGGANGQDGDGSENGLRVRNCDEHEALDLVDARSRIHNVTREVNVRKRAYLQKVSEVGYGKVIRCIKTQERLTSKLIDVNLVGPLCLDFISKLMNGFLYRSQYHQDQDVVDVGDQFTYDEHLYVVNNLIHKSLPVESLPLLGQQIYELCNGPLFTHCTDRYPLSHNVDMAYACDNAGVLPHVKDDLVKCAEGTVYPSEWMVVKYMGFFNFSDCQDLNVLQKEMWMHVRELVLSVALYNETFGKQLSIACLRDELHPDRDVILTYNKEWPLLLRHEGNLYKSKDLYLLLYRHLSRPDESGDVPTAPVAKPSTLTAAAAVSGAFREPDRPWLPSPYPSSSTAGVSRRVRATRKRPRRASSLLDLARDEHGIQDLVPGSLR
modifications: left off: small tags and cut ends
notes: full-length amino-terminal 3xHA-tagged pUL56, HCMV large terminase subunit, purified from transfected HEK293
Alpha assay signal relative to negative controls (3xHA-pUL56 or His-pUL89 alone) (500 nM 3xHA-pUL56 with 1.5 μM 6xHis-pUL89): over two-fold
Alpha assay signal (light production at 615 nm) (500 nM 3xHA-pUL56 with 1.5 μM 6xHis-pUL89, purified proteins from HEK293): over 9,000 relative light units (RLU)

B2: pUL56 depleted of its W671-F680 fragment (protein)
chain: MEMNLLQKLCVVCSKCNEYAMELECLKYCDPNVLLAESTPFKRNAAAIVYLYRKIYPEVVAQNRTQSSLLTLYLEMLLKALHEDTALLDRALMAYSRQPDRAAFYRTVLRLDRCDRHHTVELQFTDNVRFSVSLATLNDIERFLCKMNYVYGILAPEAGLEVCAQLLELLRRLCGISPVARQEVYVEGTTCAQCYEELTIIPNQGRSLNKRLQGLLCNHIAVHRPSSQSDVNIQTVEQDLLDLTTRIPHLAGVLSALKSLFSSSSAYHSYIQEAEEALREYNLFTDIPERIYSLSDFTYWSRTSEVIVKRVGITIQQLNVYHQLCRALMNGISRHLYGEDVEDIFVLGEKALDGEERMFVGSVFAAPNRIIDLITSLSIQAFEDNPVFNKLHESNEMYTKIKHILEEIRRPLPDGTGGDGPEGEAIHLRGREAMSGTGTTLMTASNSSNSSTHSQRNNGGGGRARGGGKKAVGGGANGQDGDGSENGLRVRNCDEHEALDLVDARSRIHNVTREVNVRKRAYLQKVSEVGYGKVIRCIKTQERLTSKLIDVNLVGPLCLDFISKLMNGFLYRSQYHQDQDVVDVGDQFTYDEHLYVVNNLIHKSLPVESLPLLGQQIYELCNGPLFTHCTDRYPLSHNVDMAYACDNAGVLPHVKDDLVKCAEGTVYPSENFSDCQDLNVLQKEMWMHVRELVLSVALYNETFGKQLSIACLRDELHPDRDVILTYNKEWPLLLRHEGNLYKSKDLYLLLYRHLSRPDESGDVPTAPVAKPSTLTAAAAVSGAFREPDRPWLPSPYPSSSTAGVSRRVRATRKRPRRASSLLDLARDEHGIQDLVPGSLR
modifications: left off: small tags and cut ends
decrease of the interaction signal with pUL89-WT (pUL56 deletion mutant versus wild-type pUL56, FIG. 2): 50%
